# Source: US20240150440A1 (LUMEN BIOSCIENCE, published 2024)
# Read-outs that look alike come from different tables or passages of the source.
# Key:
# [1] = molecular target: T1, recombinant SARS-CoV-2 RBD with C-terminal AviTag (SARS-CoV-2, UniProt P0DTC2 319-541)
# [2] = molecular target: T1, recombinant SARS-CoV-2 RBD with …; test: BLI, biotinylated RBD on streptavidin biosensors [Cont. 6]
# [3] = molecular target: T1, recombinant SARS-CoV-2 RBD with …; test: ELISA, competition with coated ACE2-Fc for RBD [Cont. 6]
# [4] = molecular target: SARS-COV-2 Wuhan Reference RBD (SARS-CoV-2, UniProt P0DTC2 319-541); test: ELISA, RBD coated
# [5] = molecular target: T1, recombinant SARS-CoV-2 RBD with …; test: ELISA, competition with coated ACE2-Fc for RBD [Cont. 8]
# [6] = molecular target: T1, recombinant SARS-CoV-2 RBD with …; test: ELISA, competition with coated ACE2-Fc for RBD [Cont. 1]
binder,measurement,setting,value
"MBP-R5C-B1-H6 (VHH, not shown: large carriers; small tags and cut ends) VHH: QVQLVESGGGLVQPGGSLRLSCAASGSGFSNNAMHWYRQAPGKQREGVAGITSGSVSFYADSVKGRFTISRDNAKNTVYLQMNSLKPEDTAVYYCAAVTGSSTGNAGQGYLTWGQGTQVTVSS",Kd,[1],55.3 nM
"PP885 MBP-R5b-C5-H6 (VHH, Form: Monomer) VHH: QVQLVESGGGLVQPGGSLRLSCAASGSPFKTQTVHWFRQAPGKGREWVASITSGSGTQYMDSVKGRFTISRDNAKNTVYLQMNSLKPEDTAVYYCAAANDGYGVDWGQGTQVTVSS",Kd,[2],88.5 nM
"PP904 MBP-5HVZ-R5b-C5-H6 (VHH, Form: Dimer) VHH: QVQLVESGGGLVQPGGSLRLSCAASGSPFKTQTVHWFRQAPGKGREWVASITSGSGTQYMDSVKGRFTISRDNAKNTVYLQMNSLKPEDTAVYYCAAANDGYGVDWGQGTQVTVSS",IC50,[3],2.5 nM
same,Kd,[2],11.8 nM
same,EC50,[4],1.06 nM
"PP901 MBP-5HVZ-R1e-B2-H6 (VHH, Form: Dimer) VHH: QVQLVESGGGLVQPGGSLRLSCAASGQITAENYMHWYRQAPGKQREWVAAITTGGSTLYADSVKGRFTISRDNAKNTVYLQMNSLKPEDTAVYYCNADRSYFPDYWGQGTQVTVSS",Kd,[2],197 nM
PP1094 MBP-5HVZ-PAPA-RN-1-H6 (VHH) VHH: QVQLVESGGGLVQPGGSLRLSCAASGYIFEGGPTAWFRQAPGKGREFVAAITTSGETSYAYSVKGRFTISRDNAKNTVYLQMNSLKPEDTAVYYCNATDRDETGYDYWGQGTQVTVSS,IC50,[5],7.8 nM
same,EC50,[4],0.96 nM
R5C-A2 (competition ELISA sample) (VHH) VHH: QVQLVESGGGLVQPGGSLRLSCAASGDIFSKNAMHWVRQAPGKQREFVAGIYSDGSSLYADSVKGRFTISRDNAKNTVYLQMNSLKPEDTAVYYCAALDYSARYRTWGQGTQVTVSS,IC50,[1],13.7 nM
same,Kd,[1],13.2 nM
"PP1147 MBP-5HVZ-PAPA-R5a-B7-H6 (VHH, Form: Dimer) VHH: QVQLVESGGGLVQPGGSLRLSCAASGAFFSYGAIHWFRQAPGKQREEVAAITSGGSTGYADSVKGRFTISRDNAKNTVYLQMNSLKPEDTAVYYCNAGVVWLPSNAAYNLWGQGTQVTVSS",IC50,[3],2.4 nM
same,EC50,[4],0.36 nM
"PP1159 MPB-scTRP-PAPA-R5a-B7-H6 (VHH, Form: Trimer) VHH: QVQLVESGGGLVQPGGSLRLSCAASGAFFSYGAIHWFRQAPGKQREEVAAITSGGSTGYADSVKGRFTISRDNAKNTVYLQMNSLKPEDTAVYYCNAGVVWLPSNAAYNLWGQGTQVTVSS",IC50,[3],56.5 nM
"PP1135 MBP-4B0F-PAPA-R5a-B7-H6 (VHH, Form: Heptamer) VHH: QVQLVESGGGLVQPGGSLRLSCAASGAFFSYGAIHWFRQAPGKQREEVAAITSGGSTGYADSVKGRFTISRDNAKNTVYLQMNSLKPEDTAVYYCNAGVVWLPSNAAYNLWGQGTQVTVSS",IC50,[3],18.2 nM
"PP884 MBP-R1i-A11-H6 (VHH, Form: Monomer) VHH: QVQLVESGGGLVQPGGSLRLSCAASGSILQINAIHWFRQAPGKQREEVAAITSGGSTGYADSVKGRFTISRDNAKNTVYLQMNSLKPEDTAVYYCAATSTRGGLDSDYWGQGTQVTVSS",IC50,[3],173 nM
same,Kd,[2],23.7 nM
"PP903 MBP-5HVZ-R1i-A11-H6 (VHH, Form: Dimer) VHH: QVQLVESGGGLVQPGGSLRLSCAASGSILQINAIHWFRQAPGKQREEVAAITSGGSTGYADSVKGRFTISRDNAKNTVYLQMNSLKPEDTAVYYCAATSTRGGLDSDYWGQGTQVTVSS",IC50,[3],1.5 nM
same,Kd,[2],6.98 nM
same,EC50,[4],0.27 nM
"MBP-5HVZ-R5C-B2-H6 (VHH, not shown: large carriers; small tags and cut ends) VHH: QVQLVESGGGLVQPGGSLRLSCAASGSIFSLNWVHWFRQAPGKSREGVASINSGGHADYSDSVKGRFTISRDNAKNTVYLQMNSLKPEDTAVYYCAAGPYGAYNFNSWGQGTQVTVSS",IC50,[1],5.9 nM
same,Kd,[1],57.3 nM
"PP1144 MBP-5HVZ-PAPA-R2c-F6-H6 (VHH, Form: Dimer) VHH: QVQLVESGGGLVQPGGSLRLSCAASGRILAANIVHWYRQAPGKEREGVAGITTGGSNYYSDSVKGRFTISRDNAKNTVYLQMNSLKPEDTAVYYCNALGLGSASGSYESWGQGTQVTVSS",IC50,[6],3.2 nM
"PP1132 MBP-4B0F-PAPA-R2c-F6-H6 (VHH, Form: Heptamer) VHH: QVQLVESGGGLVQPGGSLRLSCAASGRILAANIVHWYRQAPGKEREGVAGITTGGSNYYSDSVKGRFTISRDNAKNTVYLQMNSLKPEDTAVYYCNALGLGSASGSYESWGQGTQVTVSS",IC50,[6],158 nM
"PP1156 MPB-scTRP-PAPA-R2c-F6-H6 (VHH, Form: Trimer) VHH: QVQLVESGGGLVQPGGSLRLSCAASGRILAANIVHWYRQAPGKEREGVAGITTGGSNYYSDSVKGRFTISRDNAKNTVYLQMNSLKPEDTAVYYCNALGLGSASGSYESWGQGTQVTVSS",IC50,[6],165 nM
"PP935 MBP-5HVZ-S3b-E11-H6 (VHH, Form: Dimer) VHH: QVQLVESGGGLVQPGGSLRLSCAASGDIYSQSAMAWYRQAPGKEREFVAAITTTGSRSYKDSVKGRFTISRDNAKNTVYLQMNSLKPEDTAVYYCAAFAVRSSSVSDAYDYWGQGTQVTVSS",IC50,[5],12.2 nM
same,EC50,[4],0.47 nM
"PP906 MBP-5HVZ-S1b-E7-H6 (VHH, Form: Dimer) VHH: QVQLVESGGGLVQPGGSLRLSCAASGGEFSDNGLHWFRQAPGKQREFVATASSDGSTQYRDSVKGRFTISRDNAKNTVYLQMNSLKPEDTAVYYCTALLMSSAGEYDVWGQGTQVTVSS",IC50,[3],35.7 nM
same,Kd,[2],15.5 nM
same,EC50,[4],2 nM
PP1098 MBP-5HVZ-PAPA-RN-9-H6 (VHH) VHH: QVQLVESGGGLVQPGGSLRLSCAASGLRFAMTEMAWFRQAPGKQREFVALITEGGSGSYGDSVKGRFTISRDNAKNTVYLQMNSLKPEDTAVYYCAALHYTEGANTESATTFDYWGQGTQVTVSS,IC50,[5],2.3 nM
same,EC50,[4],0.83 nM
"MBP-5HVZ-R5C-A1-H6 (VHH, not shown: large carriers; small tags and cut ends) VHH: QVQLVESGGGLVQPGGSLRLSCAASGLDVSINFMHWYRQAPGKEREGVAGITWQGSTYYADSVKGRFTISRDNAKNTVYLQMNSLKPEDTAVYYCATVWAGGTPNDYWGQGTQVTVSS",IC50,[1],10.3 nM
same,Kd,[1],379 nM
"PP933 MBP-5HVZ-R5e-C1-H6 (VHH, Form: Dimer) VHH: QVQLVESGGGLVQPGGSLRLSCAASGSIPYVQAMSWFRQAPGKGREGVASIGWGGGTYYADSVKGRFTISRDNAKNTVYLQMNSLKPEDTAVYYCAAKFRENFSFYDYWGQGTQVTVSS",IC50,[5],1.9 nM
same,EC50,[4],4.9 nM
"PP883 MBP-R1e-D4-H6 (VHH, Form: Monomer) VHH: QVQLVESGGGLVQPGGSLRLSCAASGSIREINAMHWVRQAPGKGRELVASIDSGSLDYYADSVKGRFTISRDNAKNTVYLQMNSLKPEDTAVYYCAASRSGDYRYWGQGTQVTVSS",Kd,[2],47 nM
"PP1100 MBP-5HVZ-PAPA-RN-14-H6 (VHH, Form: Dimer) VHH: QVQLVESGGGLVQPGGSLRLSCAASGENFSGNLVHWFRQAPGKAREGVATVTSTGSGYYADSVKGRFTISRDNAKNTVYLQMNSLKPEDTAVYYCAAKHQKGEIPYYDWGQGTQVTVSS",IC50,[5],3.2 nM
same,EC50,[4],0.31 nM
PP1096 MBP-5HVZ-PAPA-RN-3-H6 (VHH) VHH: QVQLVESGGGLVQPGGSLRLSCAASGFEFTYRAVHWFRQAPGKGREWVAGVVSGGSTYYADSVKGRFTISRDNAKNTVYLQMNSLKPEDTAVYYCNAGPQAEEDTYDYWGQGTQVTVSS,IC50,[5],46.8 nM
same,EC50,[4],1.47 nM
"PP922 MBP-R5a-F5-H6 (VHH, Form: Monomer) VHH: QVQLVESGGGLVQPGGSLRLSCAASGYHASILAMHWVRQAPGKEREWVASMTWSDMTQYSDSVKGRFTISRDNAKNTVYLQMNSLKPEDTAVYYCAATYVTRDRPWTHWGQGTQVTVSS",IC50,[5],97.9 nM
"PP881 MBP-R5a-F2-H6 (VHH, Form: Monomer) VHH: QVQLVESGGGLVQPGGSLRLSCAASGSISSIEAMSWFRQAPGKQREGVATMASGGDTSYADSVKGRFTISRDNAKNTVYLQMNSLKPEDTAVYYCAAQTYRPDTWGRYTFWGQGTQVTVSS",Kd,[2],705 nM
"PP900 MBP-5HVZ-R5a-F2-H6 (VHH, Form: Dimer) VHH: QVQLVESGGGLVQPGGSLRLSCAASGSISSIEAMSWFRQAPGKQREGVATMASGGDTSYADSVKGRFTISRDNAKNTVYLQMNSLKPEDTAVYYCAAQTYRPDTWGRYTFWGQGTQVTVSS",IC50,[3],1.7 nM
same,Kd,[2],9.13 nM
same,EC50,[4],0.47 nM
PP1095 MBP-5HVZ-PAPA-RN-2-H6 (VHH) VHH: QVQLVESGGGLVQPGGSLRLSCAASGSYFSKNAVHWYRQAPGKGREWVAALTNSGSGNYKDSVKGRFTISRDNAKNTVYLQMNSLKPEDTAVYYCTANISESTGQGYDYWGQGTQVTVSS,IC50,[5],3.2 nM
same,EC50,[4],0.78 nM
"PP880 MBP-R5a-B5-H6 (VHH, Form: Monomer) VHH: QVQLVESGGGLVQPGGSLRLSCAASGDDFIENAISWYRQAPGKGREWVAAVTLGGHSNYADSVKGRFTISRDNAKNTVYLQMNSLKPEDTAVYYCNYPVGIPAVAIDGRRSYGYWGQGTQVTVSS",IC50,[3],43.9 nM
same,Kd,[2],60.8 nM
"PP899 MBP-5HVZ-R5a-B5-H6 (VHH, Form: Dimer) VHH: QVQLVESGGGLVQPGGSLRLSCAASGDDFIENAISWYRQAPGKGREWVAAVTLGGHSNYADSVKGRFTISRDNAKNTVYLQMNSLKPEDTAVYYCNYPVGIPAVAIDGRRSYGYWGQGTQVTVSS",IC50,[3],0.9 nM
PP1097 MBP-5HVZ-PAPA-RN-5-H6 (VHH) VHH: QVQLVESGGGLVQPGGSLRLSCAASGSSFRILAMHWYRQAPGKNREWVAVITSNGNTYYADSVKGRFTISRDNAKNTVYLQMNSLKPEDTAVYYCNADTLDLDDGATYNYWGQGTQVTVSS,IC50,[5],2.3 nM
same,EC50,[4],0.25 nM
